Measurements from US20210145976A1 (ARO BIOTHERAPEUTICS, published 2021).

Key:
[1] = target: T1, recombinant biotinylated CD71 extracellular domain (Sino Biologics) with an N-terminal 6His tag (human, UniProt P02786 89-760, biotinylated (sites not given)); test: screening ELISA
T1 construct: extracellular domain; also called hCD71; huCD71

[2] = target: T1, recombinant biotinylated CD71 …; test: screening ELISA, ratio

T1 sequence (P02786 other isoform, or with tags, fused parts or gaps): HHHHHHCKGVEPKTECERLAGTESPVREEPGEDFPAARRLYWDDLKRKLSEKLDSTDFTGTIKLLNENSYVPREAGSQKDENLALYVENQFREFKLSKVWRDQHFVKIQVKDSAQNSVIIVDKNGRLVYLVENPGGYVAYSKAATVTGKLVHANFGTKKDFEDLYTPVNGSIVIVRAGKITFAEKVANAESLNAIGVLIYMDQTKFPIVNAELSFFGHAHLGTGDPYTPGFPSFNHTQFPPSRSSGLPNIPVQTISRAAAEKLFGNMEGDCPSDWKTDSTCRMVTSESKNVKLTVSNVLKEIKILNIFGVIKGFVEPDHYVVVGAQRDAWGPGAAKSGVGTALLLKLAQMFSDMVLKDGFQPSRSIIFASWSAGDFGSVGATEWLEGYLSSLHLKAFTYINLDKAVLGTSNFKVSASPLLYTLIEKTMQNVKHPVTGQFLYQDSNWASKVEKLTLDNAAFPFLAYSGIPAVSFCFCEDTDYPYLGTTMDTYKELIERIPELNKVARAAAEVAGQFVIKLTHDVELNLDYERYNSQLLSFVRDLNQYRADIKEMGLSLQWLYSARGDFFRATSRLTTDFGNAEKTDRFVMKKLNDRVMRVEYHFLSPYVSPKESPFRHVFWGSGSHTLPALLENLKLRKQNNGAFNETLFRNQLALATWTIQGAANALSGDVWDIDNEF

B1: SEQ ID NO 154 (designed binder)
chain: MLPAPKNLVVSRVTEDSARLSWTAPDAAFDSFFIPYAEPRPDGEAIVLTVPGSERSYDLTGLKPGTEYSVLIHGVKGGLLSSPLSAIFTT
notes: FN3 domain
[1]
  hCD71: 2.78e+06
[2]
  hCD71:HSA: 670

B2: SEQ ID NO 82 (designed binder)
chain: MLPAPKNLVVSRVTEDSARLSWTAPDAAFDSFAIAYVEWWKLGEAIVLTVPGSERSYDLTGLKPGTEYVVPIPGVKGGGHSSPLSAIFTT
notes: FN3 domain
[1]
  hCD71: 3.53e+06
[2]
  hCD71:HSA: 187

B3: SEQ ID NO 86 (designed binder)
chain: MLPAPKNLVVSRVTEDSARLSWTAPDAAFDSFIIWYAEWVNDGEAIVLTVPGSERSYDLTGLKPGTEYRVEITGVKGGTWSRPLSAIFTT
notes: FN3 domain
[1]
  hCD71: 3.39e+06
[2]
  hCD71:HSA: 1510

B4: SEQ ID NO 88 (designed binder)
chain: MLPAPKNLVVSRVTEDSARLSWTAPDAAFDSFWIEYFEWTVGGEAIVLTVPGSERSYDLTGLKPGTEYYVSIYGVKGGWLSPPLSAIFTT
notes: FN3 domain
[1]
  hCD71: 708000
[2]
  hCD71:HSA: 118

B5: SEQ ID NO 90 (designed binder)
chain: MLPAPKNLVVSRVTEDSARLSWTAPDAAFDSFTIHYWEFDPPGEAIVLTVPGSERSYDLTGLKPGTEYTVYIEGVKGGWWSKPLSAIFTT
notes: FN3 domain
[1]
  hCD71: 1.09e+06
[2]
  hCD71:HSA: 429

B6: SEQ ID NO 93 (designed binder)
chain: MLPAPKNLVVSRVTEDSARLSWTAPDAAFDSFYIGYLEPGDNGEAIVLTVPGSERSYDLTGLKPGTEYNVSIGGVKGGLGSYPLSAIFTT
notes: FN3 domain
[1]
  hCD71: 2.16e+06
[2]
  hCD71:HSA: 1310

B7: SEQ ID NO 98 (designed binder)
chain: MLPAPKNLVVSRITEDSARLSWTAPDAAFDSFDIPYGEFDTIGEAIVLTVPGSERSYDLTGLKPGTEYDVYIEGVKGGHLSWPLSAIFTT
notes: FN3 domain
[1]
  hCD71: 1.16e+06
[2]
  hCD71:HSA: 75

B8: SEQ ID NO 101 (designed binder)
chain: MLPAPKNLVVSRVTEDSARLSWTAPDAAFDSFAIDYDEPINSGEAIVLTVPGSERSYDLTGPKPGTEYEVEIYGVKGGYLSRPLSAIFTT
notes: FN3 domain
[1]
  hCD71: 1.97e+06
[2]
  hCD71:HSA: 216

B9: SEQ ID NO 105 (designed binder)
chain: MLPAPKNLVVSRVTEDSARLSWTAPDAAFDSFGIAYYERSGAGEAIVLTVPGSERSYDLTGLKPGTEYMVYINGVKGGFVSSPLSAIFTT
notes: FN3 domain
[1]
  hCD71: 1.76e+06
[2]
  hCD71:HSA: 1260

B10: SEQ ID NO 108 (designed binder)
chain: MLPAPKNLVVSRVTEDSARLSWTAPDAAFDSFTIIYGEVNPYGEAIVLTVPGSERSYDLTGLKPGTEYDVFIEGVKGGHLSWPLSAIFTT
notes: FN3 domain
[1]
  hCD71: 3.19e+06
[2]
  hCD71:HSA: 2450

B11: SEQ ID NO 110 (designed binder)
chain: MLPAPKNLVVSRVTEDSARLSWTAPDAAFDSFFIHYHEWWEAGEAIVLTVPGSERSYDLTGLKPGTEYLVDIPGVKGGDLSVPLSAIFTT
notes: FN3 domain
[1]
  hCD71: 1.68e+06
[2]
  hCD71:HSA: 89

B12: SEQ ID NO 114 (designed binder)
chain: MLPAPKNLVVSRVTEDSARLSWTAPDAAFDSFAIEYWEAVGSGEAIVLTVPGSERSYDLTGLKPGTEYHVYIYGVKGGYLSLPLSAIFTT
notes: FN3 domain
[1]
  hCD71: 3.27e+06
[2]
  hCD71:HSA: 780

B13: SEQ ID NO 116 (designed binder)
chain: MLPAPKNLVVSRVTEDSARLSWTAPDAAFDSFSIAYSEVRYDGEAIVLTVPGSERSYDLTGLKPGTEYVVPIGGVKGGGSSSPLSAIFTT
notes: FN3 domain
[1]
  hCD71: 536000
[2]
  hCD71:HSA: 358

B14: SEQ ID NO 117 (designed binder)
chain: MLPAPKNLVVSRVTEDSARLSWTAPDAAFDSFTIPYGEAFNPGEAIVLTVPGSERSYDLTGLKPGTEYDVFIEGVKGGTLSWPLSAIFTT
notes: FN3 domain
[1]
  hCD71: 1.5e+06
[2]
  hCD71:HSA: 64

B15: SEQ ID NO 118 (designed binder)
chain: MLPAPKNLVVSRVTEDSARLSWTAPDAAFDSFRILYGEVDPWGEAIVLTVPGSERSYDLTGLKPGTEYDVWIEGVKGGKLSWPLSAIFTT
notes: FN3 domain
[1]
  hCD71: 2.24e+06
[2]
  hCD71:HSA: 119

B16: SEQ ID NO 122 (designed binder)
chain: MLPAPKNLVVSRVTEDSARLSWTAPDAAFDSFQIPYWEQSLGGEAIVLTVPGSERSYDLTGLKPGTEYEVWIEGVKGGDLSFPLSAISTT
notes: FN3 domain
[1]
  hCD71: 2.31e+06
[2]
  hCD71:HSA: 78

B17: SEQ ID NO 123 (designed binder)
chain: MLPAPKNLVVSRVTEDSARLSWTAPDAAFDSFVIPYEEYLYTGEAIVLTVPGSERSYDLTGLKPGTEYDVWIEGVKGGLTSWPLSAIFTT
notes: FN3 domain
[1]
  hCD71: 707000
[2]
  hCD71:HSA: 228

B18: SEQ ID NO 125 (designed binder)
chain: MLPAPKNLVVSRVTEDSARLSWTAPDAAFDSFVIEYFEFVGEGEAIVLTVPGSERSYDLTGLKPGTEYDVGIYGVKGGSLSSPLSAIFTT
notes: FN3 domain
[1]
  hCD71: 2.33e+06
[2]
  hCD71:HSA: 2220

B19: SEQ ID NO 131 (designed binder)
chain: MLPAPKNLVVSRVTEDSARLSWTAPDAAFDSFSIDYYEGKGYGEAIVLTVPGSERSYDLTGLKPGTEYQVLISGVKGGKYSLPLSAIFTT
notes: FN3 domain
[1]
  hCD71: 2.18e+06
[2]
  hCD71:HSA: 910

B20: SEQ ID NO 132 (designed binder)
chain: MLPAPKNLVVSRVTEDSARLSWTAPDAAFDSFTIVYAEVTYDGEAIVLTVPGSERSYDLTGLKPGTEYDVFIEGVKGGELSWPLSAIFTT
notes: FN3 domain
[1]
  hCD71: 2.75e+06
[2]
  hCD71:HSA: 1170

B21: SEQ ID NO 133 (designed binder)
chain: MLPAPKNLVVSRVTEDSARLSWTAPDAAFDSFPIVYGEAWVTGEAIVLTVPGSERSYDLTGLKPGTEYDVWIEGVKGGELSWPLSAIFTT
notes: FN3 domain
[1]
  hCD71: 4.28e+06
[2]
  hCD71:HSA: 855

B22: SEQ ID NO 135 (designed binder)
chain: MLPAPKNLVVSRVTEDSARLSWTAPDAAFDSFPISYYEMSGLGEAIVLTVPGSERSYDLTGLKPGTEYMVYIFGVKGGLNSLPLSAIFTT
notes: FN3 domain
[1]
  hCD71: 2.06e+06
[2]
  hCD71:HSA: 1370

B23: SEQ ID NO 137 (designed binder)
chain: MLPAPKNLVVSRVTEDSARLSWTAPDAAFDSFEIEYDEPSVAGEAIVLTVPGSERSYDLTGLKPGTEYRVFIWGVKGGNQSWPLSAIFTT
notes: FN3 domain
[1]
  hCD71: 484000
[2]
  hCD71:HSA: 236

B24: SEQ ID NO 138 (designed binder)
chain: MLPAPKNLVVSRVTEDSARLSWTAPDAAFDSFFIKYIEWWADGEAIVLTVPGSERSYDLTGLKPGTEYLVEIYGVKGGRQSYPLSAIFTT
notes: FN3 domain
[1]
  hCD71: 4.18e+06
[2]
  hCD71:HSA: 1190

B25: SEQ ID NO 141 (designed binder)
chain: MLPAPKNLVVSRVTEDSARLSWTAPDAAFDSFVIEYFEQFNLGEAIVLTVPGSERSYDLTGLKPGTEYLVGIYGVKGGWLSHPLSAIFTT
notes: FN3 domain
[1]
  hCD71: 2.04e+06
[2]
  hCD71:HSA: 648

B26: SEQ ID NO 144 (designed binder)
chain: MLPAPKNLVVSRVTEDSARLSWTAPDAAFDSFIIPYAEVRPDGEAIVLTVPGSERSYDLTGLKPGTEYSVLIHGVKGGKLSLPLSAIFTT
notes: FN3 domain
[1]
  hCD71: 2.71e+06
[2]
  hCD71:HSA: 986

B27: SEQ ID NO 145 (designed binder)
chain: MLPAPKNLVVSRVTEDSARLSWTAPDAAFDSFFIPYAEPSPTGEAIVLTVPGSERSYDLTGLKPGTEYDVWIEGVKGGTLSWPLSAIFTT
notes: FN3 domain
[1]
  hCD71: 1.62e+06
[2]
  hCD71:HSA: 33

B28: SEQ ID NO 147 (designed binder)
chain: MLPAPKNLVVSRVTEDSARLSWTAPDAAFDSFFIGYLEPQPPGEAIVLTVPGSERSYDLTGLKPGTEYSVLIHGVKGGRNSDPLSAISTT
notes: FN3 domain
[1]
  hCD71: 2.36e+06
[2]
  hCD71:HSA: 33

B29: SEQ ID NO 150 (designed binder)
chain: MLPAPKNLVVSRVTEDSARLSWTAPDAAFDSFPIAYAEPSPTGEAIVLTVPGSERSYDLTGLKPGTEYSVLIHGVKGGHLSDPLSAIFTT
notes: FN3 domain
[1]
  hCD71: 2.62e+06
[2]
  hCD71:HSA: 748

B30: SEQ ID NO 151 (designed binder)
chain: MLPAPKNLVVSRVTEDSARLSWTAPDAAFDSFFIPYAEPSPTGEAIVLTVPGSERSYDLTGLKPGTEYGVVILGVKGGYGSDPLSAIFTT
notes: FN3 domain
[1]
  hCD71: 1.77e+06
[2]
  hCD71:HSA: 32

B31: SEQ ID NO 156 (designed binder)
chain: MLPAPKNLVVSRVTEDSARLSWTAPDAAFDSFAIEYFENLGIGEAIVLTVPGSERSYDLTGLKPGTEYVVNIYGVKGGWLSSPLSAIFTT
notes: FN3 domain
[1]
  hCD71: 1.03e+06
[2]
  hCD71:HSA: 206

B32: SEQ ID NO 158 (designed binder)
chain: MLPAPKNLVVSRVTEDSARLSWTAPDAAFDSFIIDYLELDDYGEAIVLTVPGSERSYDLTGLKPGTEYPVYIYGVKGGLPSTPLSAIFTT
notes: FN3 domain
[1]
  hCD71: 2.06e+06
[2]
  hCD71:HSA: 1520

B33: SEQ ID NO 159 (designed binder)
chain: MLPAPKNLVVSRVTEDSARLSWTAPDAAFDSFLIPYAETSPSGEAIVLTVPGSERSYDLTGLKPGTEYSVLIHGVKGGRNSDPLSAIFTT
notes: FN3 domain
[1]
  hCD71: 2.58e+06
[2]
  hCD71:HSA: 1320

B34: SEQ ID NO 160 (designed binder)
chain: MLPAPKNLVVSRVTEDSARLSWTAPDAAFDSFNIAYGEWRQHGEAIVLTVPGSERSYDLTGLKPGTEYDVFIDGVKGGNLSWPLSAIFTT
notes: FN3 domain
[1]
  hCD71: 2.76e+06
[2]
  hCD71:HSA: 836

B35: SEQ ID NO 165 (designed binder)
chain: MLPARKNLVVSRVTEDSARLSWTAPDAAFDSFFIPYAEPSPTGEAIVLTVPGSERSYDLTGLKPGTEYSVLIHGVKGGHLSDPLSAISTT
notes: FN3 domain
[1]
  hCD71: 2.64e+06
[2]
  hCD71:HSA: 41

B36: SEQ ID NO 166 (designed binder)
chain: MLPAPKNLVVSRVTEDSARLSWTAPDAAFDSFTILYNEIQNVGEAIVLTVPGSERSYDLTGLKPGTEYDVWIEGVKGGELSWPLSAIFTT
notes: FN3 domain
[1]
  hCD71: 2.42e+06
[2]
  hCD71:HSA: 480
